How the values were obtained:
[1] = biological target: HIV-1 M-type (NL4.3) capsid N-terminal domain (HIV-1 M-type (NL4.3)) (UniProt P12493)
[2] = biological target: HIV-2 (ROD) capsid N-terminal domain (HIV-2 (ROD))
[3] = biological target: HIV-1 M-type (NL4.3) capsid N-terminal domain (HIV-1 M-type (NL4.3)) (UniProt P12493); experiment: ITC; MicroCal ITC200; cyclophilin (typical concentration 1.4 mM) in the syringe, capsid (typical concentration 120 µM) in the cell; 50 mM KPO4 pH 7.4, 100 mM NaCl, 1 mM DTT; 15°C; one-state model
[4] = biological target: HIV-2 (ROD) capsid N-terminal domain (HIV-2 (ROD)); experiment: as above
[5] = biological target: HIV-2 capsid N-terminal domain with an alanine inserted at position 88 (HIV-2 (ROD)); experiment: as above

## CypA domain of Mafa TRIMCyp2 with Cyp K143E (K446E in TRIMCyp) (domain or fragment)
[1]
  restriction of the infectivity of the HIV-1 vector in CRFK cells expressing whole Mafa TRIMCyp2 Cyp K143E; partially rescued by 5 µM cyclosporine (orders of magnitude): 2
[2]
  restriction of the infectivity of the HIV-2 vector in CRFK cells expressing whole Mafa TRIMCyp2 Cyp K143E; completely rescued by 5 µM cyclosporine (orders of magnitude): 2
[3]
  Kd: 12 µM
[4]
  Kd: 13 µM
[5]
  Kd: 9 µM

## CypA domain of Macaca fascicularis TRIMCyp2 (Mafa TRIMCyp2) (domain or fragment)
[3]
  Kd: 12 µM
[5]
  Kd: 207 µM
